The nature of this data set: soluble on expression in E. coli; label from the status in PepcDB or PDB records.
In the case of “MPSQITRSSHSSLPEVAPASGDAAGVSEQTPQQARTVAFFASGELAVAFGRTSTAPAQDSVRLLSALQRELDKQQPSWPTVAQLCHSLAEVAKTEQGWHQLASEDQAPAPALKDLLERCIGRLADMPASHASHDSLSLACEGLRTARLHQSVARLTARPPALARAIPDLLALTHLDPETLGAEPPVVSSYTLFSHFVHTAKQRTAELNDSLQRQPEAVVSLLRSHADTLNDLETLPGALQALTENCQDAPACNELRELAEVVGALLQLLREHGILPRLEAISIEPGEAPAPGHEAAEPRLTRSQALLKAGGNLVRKFDAYGALAPMDDKGLLALMRTPAPHLSPDQMHAFLNKHVLHLTQEQRDIVSNTPLPFAPEGDIEARCGMGFDEKLRLALANGSLVLSEEQLARLGHLPSAATTTSDVVKTLLEKPSSALSEAERDMLGAIVQANGQGQLDAWRAHNEQLPAVLSRSGLPSDVKDELLSLNQSMNAELGTLKNGASFKSRILASPAMLLALAPLPLAVAFVSKDNSYSSSLVAHFTKNAVFMAGLMMNELTNARTNVDHGLNRYFVTVLANAIVAQPTFARNEHLLEQVGFGIATAVASGAATLGVFNRESIVAAFKLAKSKLSRQDTGNASIPEEDHLAVVRHFDVSEHFAQQMKVATELYKQDKSITDIMNSSLTYLGTKSSEFQARFESVDALRAGLQLAEGERKADPDFYTKLGLVALTASIGAALVMLMKSMVGKADYAADGVWCVSEMLKLAMNPEVDMQKAVQVFKEIVGLNLVMTGFLGVNKVWNFLDKGIKGYASGAAVLTAANLTLPGMVGEVAGAAAGKGLSYLTDKGKAAHQAGRAAASWAGNYVGTSRLGSAVGTLQTAIPGRIAGGQVVAGLYDRFRYLTGSHPTPAQQAAGEP”, the “soluble on expression in E. coli” value is recorded as “not soluble”.

For the sequence “MGSDKIHHHHHHMQKLQTVNAETLLYEPLEKPSFVVDSLIPTGLSLFCGSQKIGKSWLMLKLCLCVSQGIPLWDMPTMEGDVLYLCLEDTFCRIQDRLFRLTDEASGRLHFAVASCKLSDGLIVQLEDYLKDYPDSRLIVIDTLQKVRTASKDNAYASDYGDISLIKDFADRHSLAVIVVHHIRKQNDSDVFNKVSGTTGLTGSADATFVLEKEKRASDTAKLYVTGRDTPYQEYTLRFRDCRWELVERKTQEQLAKETIPDVLFRLVDFMRDKEEWIGTATELLAAMGETETIPTVITKWLNEYRTTFLSENRICYQYSRRKDGRRIALARRAGDSGDGGDSDIRIPPCYCH”, the “soluble on expression in E. coli” value is on record as “not soluble”.

With “GPGSMITEGAATPCAEVPAIRRVRRTRSRFERLVRPEDVAPGEPTPSVEGWVLFLTNLPPNTTMDHITDLFVTREGEGLWNVREVKMPLDKNCECCGYALVELEKREAFEAALRDMEGMTLSFAEGEPPNGEDAWRLHIAPTFLGEKDDEEEELVAGGKRERE”, the “soluble on expression in E. coli” value was “soluble”.

Consider “MEKLINRVGPNGESRAQAVTSDQEKRLLHQLREITRVMKEGKFIDTSPEKEAEEAPYMEDWEGYPEETYPIYDLSDGIKRRQETILVDYPDLKEPSAEEIAEQMGEIEEEGSERLSWDHLPTDPGAQKDNSVAPCDPKPESCSCCVHEEEDPAVLAENAGFSADGYSEQEEATKENLPQDFTNEGLGVSTDNAHVGGMLRKRNPQGFE”, for which the “soluble on expression in E. coli” value is “not soluble”.

As to “SLLLKQAIVYPITSQKFQGDVLVIGEKIAEVKPSIQPTQDMTVIDARALHLLPGFIDVHTHLGLYDEGTGWAGNDANETSEVSTPHIRSLDGIHPFDIAFQDAVQNGITTVHVMPGSQNIIGGTTCVIKTAGTCIDHMIIQEPAGLKIAFGENPKKVHSNGTKESITRMGIMGLLRESFYEAQHYGHEADFRMLPILKALRREIPVRIHAHRADDISSALRFATEFNLDLRIEHCTEGHFIVEELSKHNLKVSVGPTLTRRSKIELKNKTWDTYHILSKNGVEVSITTDHPYTPIQYLNVCAAVAVREGLDEKTALEGITIFPARNLRLEDRIGSIETGKDADLVLWTHHPFHYLAKPVLTMIDGKIIYKKNKKN”, the “soluble on expression in E. coli” value was “soluble”.

Turning to “MSREDELLEKLDECENATAFLQVSNKIINLKLKALLPSVFVQDDLVKEYAVDPLLREDGPLVTTDVVSKLMFAMGKISLQTYADIGLYDQVLEYVVTQPEKIAFTDDVIYDFIKNQAVLSSQQDCFYLESINQLKFSSFESFSQMRYESLIKTVLKLSCEMLIERIEE”, the “soluble on expression in E. coli” value was “not soluble”.

For “IPADELFSRDALRKVEDIRNKTKNKSYIRKALKKPWNILVGSLPVGFDFPARIIAEIVDAPKLSLEGLVKKANYYLSEGADIVDIGMVAGETNVKFLDVIPEFREVLGREVPISLDSLNAKELEAGLDFVDMILSVDWSNVEDLVTDKPVVLIPTDMKNGYFPLNPRDRVESLEKLKEKALSLGYKRIIADLILEHYPGFSRSIVAFSLYRDRNREDIMLAGVGNVTEMTDADSPGINALLAGIASELRISMLLTTEVSRKCTGSIRELRRAIDMTLLGGVKDVGLNLLLLKEKKDKGLRFEISKNIVEAKRKEVKLEDTYFRIFVDNGKIYVNAYKGMNLVITIVGNEPNEIMDTILDYFSLSPRHAFYLGRELEKAYTALKLRRSYAQEEELFRDFYTK”, the “soluble on expression in E. coli” value is recorded as “not soluble”.

With “MGGLFVTPAKAVKTTNYAEEIAALQPGTTPEEIMKSASQIAKQQHVKQDVILKQFYKEITADKAEGDRLAKESGMSIMGGSSGTKKLPTSAKGNIYYTNSYTAYYNHGHVGMYSAADKIVESVPSDGVRQIAYNARDVEDNSIVQTVSVSSSQKTAAADWAVSKVGDPYSFNFVNNRNTGHDGAKNCSKLLWSAFLLKAGIDIDSNGGLGVYPRDITSSSYTTTIMTIYLEHHHHHH”, the “soluble on expression in E. coli” value was “not soluble”.

In the case of “MGSDKIHHHHHHMQATDIATQQALAAALGVNRSAVTQAKNRDAIPQKWILQLARAYHLAPDWLEFGKGRQHQPPTSLHDPETVLVPRVKAVLSAGGGSLDVSGGVVENLPFRYDWLARRGHPAHMVLMNVTGDSMEPGIRHGDTLLIDQSHVTAQTGGVYAFGYEDSILVKRFGRDADAILLLSDNTAYAPIRIRGDEADLLHVIGKIVWLCRAVQ”, the “soluble on expression in E. coli” value is recorded as “not soluble”.

As for “MGSDKIHHHHHHMPKPTKIVVLLKGYPRLSETFIAQELLGLEQAGFALELVAMRRPTDKKRHPVHDEIQAPVHYLPEYLHEEPGRVLKALWAVRRLPGFRPVLTQFFKDLRRDFSRNRFRRLGQAMVLVAEWPGKADWLHAHFIHTPASVAFYASLLGSRGFSVSAHAKDIWTSESWDLADKLAHATWVVTCTKVGFDRLSALADGRGSVHLSYHGLDLDRFPHFEGVRPARDGSDTADPLRLLSVGRAVKKKGYDVLLRALSALPADLNWHFTHIGGGDELVRLQALADQLGIASRITWKGAMDQRDVLTHYRDSDLFTLACRITADGDRDGLPNVLVEAASQGLMPVSTTVSGISELFVDGENGLLVEPDDAQALAVALEKAMRDPALRARLGSAAEGKVRRDFDYRNSIRDLTDLFSGRQ”, the “soluble on expression in E. coli” value is recorded as “not soluble”.

As to “MSTGDSFETRFEKMDNLLRDPKSEVNSDCLLDGLDALVYDLDFPALRKNKNIDNFLSRYKDTINKIRDLRMKAEDYEVVKVIGRGAFGEVQLVRHKSTRKVYAMKLLSKFEMIKRSDSAFFWEERDIMAFANSPWVVQLFYAFQDDRYLYMVMEYMPGGDLVNLMSNYDVPEKWARFYTAEVVLALDAIHSMGFIHRDVKPDNMLLDKSGHLKLADFGTCMKMNKEGMVRCDTAVGTPDYISPEVLKSQGGDGYYGRECDWWSVGVFLYEMLVGDTPFYADSLVGTYSKIMNHKNSLTFPDDNDISKEAKNLICAFLTDREVRLGRNGVEEIKRHLFFKNDQWAWETLRDTVAPVVPDLSSDIDTSNFDDLEEDKGEEETFPIPKAFVGNQLPFVGFTYYSNRRYL”, the “soluble on expression in E. coli” value was “soluble”.

Turning to “DCMFGNGKGYRGKRVTTVTGTPCQDWAAQEPHRHSIFTPETNPRAGLEKNYCRNPDGDVGGPWCYTTNPRKLYDYCDVPQCAAP”, the “soluble on expression in E. coli” value is listed as “soluble”.

On to “AIAEAAVDWYDFWNYYYLGKYQAANDVCTTLLEPNQWPRSVLLAVIRLRLALRDLEGIRALRNLVNDTWTSSVIHELIETLQKNVPPIDDGERLRSVVFGDGSALDAVDEAGRLLAALALQRAGLYLDALETLPLSRCENDAESRACRICLWLHLNRLDRAQLEQQALEHWFERQLADGDQRAVGTLVQLSRATLAVASNDAEDVAIEAALRSCRDLAERYGPSTKLLNLTYLCLVRLGRTEASESTLQQAMNLDAQDPDTMANTAASAAKTSMMMMAFPEAATATQRPIEYLRKYAPWHPWIRAQDDFERKLRGLAT”, for which the “soluble on expression in E. coli” value was “soluble”.
